The text below walks through data of patent publication US20220073646A1 (Hoffmann-La Roche, published 2022).

Positions count from the first letter of the chain named. Numbers in names are those of the source.

Assay [1] has as its target T1, cynomolgus 4-1BB on activated cynomolgus PBMC (cynomolgus, UniProt Q07011 24-255 (human entry)).
T1 chain: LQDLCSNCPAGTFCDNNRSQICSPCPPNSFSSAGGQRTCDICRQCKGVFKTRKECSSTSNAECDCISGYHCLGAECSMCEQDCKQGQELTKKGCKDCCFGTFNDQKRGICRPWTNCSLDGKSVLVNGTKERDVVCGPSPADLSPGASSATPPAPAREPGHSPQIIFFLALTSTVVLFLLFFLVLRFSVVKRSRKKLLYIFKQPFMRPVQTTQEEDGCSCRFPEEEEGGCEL
The assay can be described thus: flow cytometry, activated cynomolgus CD8 T cells.
Description: (§1) Cells were washed twice with FACS buffer and resuspended in 100 μL/well FACS buffer supplied with 0.2 μg/mL DAPI to discriminated dead from living cells. Cells were immediately acquired using a 5-laser Fortessa (BD Bioscience with DIVA software). Gates were set on CD8⁺ and CD4⁺ T cells and the median fluorescence intensity (MFI) of the secondary detection antibody was used to analyze binding of primary antibodies. Using Graph Pad Prism (Graph Pad Software Inc.) data was baselined by subtracting the blank values (no primary antibody added) and the EC₅₀ values were calculated using non-linear regression curve fit (robust fit).

Assay [2] has as its target T2, human 4-1BB on cells (human, UniProt Q07011 24-255). The assay can be described thus: cell-based or functional assay.
The target of assay [3] is T1, cynomolgus 4-1BB on activated …. Description: flow cytometry, activated cynomolgus CD4 T cells.
Description: as §1
Assay [4] deals with T3, mouse 4-1BB on activated mouse splenocytes (mouse, UniProt P20334 24-256). Description: flow cytometry, activated mouse T cells. On the technique in general: A flow cytometer gives signals particle by particle.
Description: (§2) Cells were incubated for 30 min at 4° C., washed twice with 200 μL/well FACS-buffer and resuspended for fixation with 50 μL/well DPBS containing 1% (v/v) formaldehyde. The next day cells were resuspended in 200 μL/well FACS buffer and acquired using the 2-laser Cantoll (BD Bioscience with DIVA software) or 5-laser Fortessa (BD Bioscience with DIVA software). Gates were set on CD8⁺ and CD4⁺ T cells and the median fluorescence intensity (MFI) of the secondary detection antibody was used to analyze binding of primary antibodies. Using Graph Pad Prism (Graph Pad Software Inc.) data was baselined by subtracting the blank values (no primary antibody added) and the EC₅₀ values were calculated using non-linear regression curve fit (robust fit).
For assay [5], the target named is T4, recombinant human 4-1BB Fc(kih) (human, UniProt P0DOX5 223-449 = IgG part, biotin on C-terminal Avi tag where used biotinylated).
T4 construct: also called hu4-1BB; biotinylated human 4-1BB
Description: SPR, captured IgG, 4-1BB Fc(kih) analyte. (SPR reads the build-up and loss of mass on a sensor chip optically.)
Description: (§3) All SPR experiments were performed on a Biacore T200 at 25° C. with HBS-EP as running buffer (0.01 M HEPES pH 7.4, 0.15 M NaCl, 3 mM EDTA, 0.005% Surfactant P20, Biacore, Freiburg/Germany).
Anti-human Fab antibody (Biacore, Freiburg/Germany) was directly coupled on a CM5 chip at pH 5.0 using the standard amine coupling kit (Biacore, Freiburg/Germany). The immobilization level was approximately 7500 RU. […] The dissociation was monitored for 120 seconds. Bulk refractive index differences were corrected for by subtracting the response obtained on reference flow cell.

The target in assay [6] is recombinant cynomolgus 4-1BB Fc(kih) (cynomolgus, UniProt P0DOX5 223-449 = IgG part, biotin on C-terminal Avi tag where used biotinylated). The assay can be described thus: SPR, captured IgG, cyno 4-1BB Fc(kih) analyte.
Description: as §3
Anti-human Fab antibody (Biacore, Freiburg/Germany) was directly coupled on a CM5 chip at pH 5.0 using the standard amine coupling kit (Biacore, Freiburg/Germany). The immobilization level was approximately 9000 RU.
Assay [7] deals with T2, human 4-1BB on cells. The assay can be described thus: flow cytometry, activated human CD8 T cells.
Description: Plates were centrifuged 4 minutes with 400×g at 4° C. and supernatant was discarded. […] Afterwards cells were washed once with 200 μL/well cold FACS buffer (DPBS supplied with 2% (v/v) FBS, 5 mM EDTA pH8 (Amresco, Cat. No. E177) and 7.5 mM sodium azide (Sigma-Aldrich S2002)). […] Cells were washed four times with 200 μL/well 4° C.
Cells were washed twice with 200 μL FACS buffer/well and fixated by resuspending in 50 μL/well DPBS containing 1% Formaldehyde (Sigma, HT501320-9.5L). Cells were acquired the same or next day using a 3-laser Canto II (BD Bioscience with DIVA software) or a 5-laser Fortessa (BD Bioscience with DIVA software) or 3-laser MACSQuant Analyzer 10 (Miltenyi Biotech). Gates were set on CD8⁺ and CD4⁺ T cells and the median fluorescence intensity (MFI) or geo mean of fluorescence intensity of the secondary detection antibody was used to analyze binding of primary antibodies. Using Graph Pad Prism (Graph Pad Software Inc.) data was baselined by subtracting the blank values (no primary antibody added) and the EC50 values were calculated using non-linear regression curve fit (robust fit).
Assay [8] concerns the target T5, human GITR on HEK cells (HEK-GITR) (human, UniProt Q9Y5U5 26-241).
T5 construct: also called cell surface expressed human GITR
T5 sequence: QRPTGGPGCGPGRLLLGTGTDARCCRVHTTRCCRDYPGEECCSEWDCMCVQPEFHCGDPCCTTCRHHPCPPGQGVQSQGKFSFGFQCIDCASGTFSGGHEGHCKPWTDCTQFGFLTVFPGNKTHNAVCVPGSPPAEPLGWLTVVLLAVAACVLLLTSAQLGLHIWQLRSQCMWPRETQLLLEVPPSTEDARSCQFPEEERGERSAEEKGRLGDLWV
The assay can be described thus: flow cytometry, HEK-GITR.
Description: Cells were washed twice with complete media and once with PBS+2% FBS before adjusting cell density to 1×10⁷ cells/mL in PBS+2% FBS.
Plates were centrifuged at 4° C., 3 minutes at 600×g and supernatant was flicked off. Cells were resuspended in 50 μL/well of 4° C. cold PBS+2% FBS containing titrated anti-GITR antibody constructs for 120 minutes at 4° C. Plates were washed twice with 200 μL/well 4° C. PBS+2% FBS to remove unbound construct. […] Plates were centrifuged at 4° C. for 3 minutes at 600×g and washed twice with PBS+2% FBS. […] Plates were centrifuged at 4° C., 3 minutes at 600×g and supernatant was flicked off.

In assay [9] the target is T3, mouse 4-1BB on activated mouse …. Description: flow cytometry, activated murine CD4 T cells.
Description: as §2
For assay [10] the target is unchanged. The assay can be described thus: flow cytometry, activated murine CD8 T cells.
Description: as §2
In assay [11] the target is T6, murine FAP (His-tagged ectodomain) (mouse, UniProt P97321 27-761).
T6 construct: also called mu FAP
Description: SPR, FAP captured via anti-His, 1:1 fit, apparent KD (bivalent).
Description: The capacity of the bispecific constructs to bind human, murine and cynomolgus FAP was assessed by surface plasmon resonance (SPR). All SPR experiments were performed on a Biacore T200 (Biacore) at 25° C. with HBS-EP as running buffer (0.01 M HEPES pH 7.4, 0.15 M NaCl, 3 mM EDTA, 0.005% Surfactant P20, (Biacore).
Immobilization levels for the anti-His antibody of up to 18000 resonance units (RU) were used.
Following the capture step, the bispecific constructs as well as control molecules were immediately passed over the chip surface at a concentration ranging from 0.006-100 nM with a flow rate of 30 μL/minute for 280 s and a dissociation phase of 180 s. Bulk refractive index differences were corrected for by subtracting the response obtained in a reference flow cell, where no FAP was immobilized. Affinity was determined using the Langmuir 1:1 curve fitting. For bivalent binding the same 1:1 fitting was used leading to an apparent KD value.

Assay [12] has as its target T7, human fibroblast activation protein (huFAP) on cells (human, UniProt Q12884 1-760).
T7 construct: also called NIH/3T3-huFAP clone 39; NIH/3T3-huFAP clone 19
The assay can be described thus: flow cytometry, WM266-4.

Assay [13] addresses T2, human 4-1BB on cells. Description: cell-based or functional assay. The source holds these as a separate data set.
The next assay concerns the target T8, human OX40 on cells (human, UniProt P43489 29-277).
T8 sequence: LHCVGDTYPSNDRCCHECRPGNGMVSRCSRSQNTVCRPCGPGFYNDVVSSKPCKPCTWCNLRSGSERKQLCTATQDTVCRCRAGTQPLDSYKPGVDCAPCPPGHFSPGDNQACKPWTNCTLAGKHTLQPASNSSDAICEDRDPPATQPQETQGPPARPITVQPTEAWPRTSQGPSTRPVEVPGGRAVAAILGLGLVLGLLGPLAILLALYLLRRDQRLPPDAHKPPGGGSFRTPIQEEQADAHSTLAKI
Description: flow cytometry, activated human CD4 T cells.

T3 sequence (P20334 24-256 limits assumed): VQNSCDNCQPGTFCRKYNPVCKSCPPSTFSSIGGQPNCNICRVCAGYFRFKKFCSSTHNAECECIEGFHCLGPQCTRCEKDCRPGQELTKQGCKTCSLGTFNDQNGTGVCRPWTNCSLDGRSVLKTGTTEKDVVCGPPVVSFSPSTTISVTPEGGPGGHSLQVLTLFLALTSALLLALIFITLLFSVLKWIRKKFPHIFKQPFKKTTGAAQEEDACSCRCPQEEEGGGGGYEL

B1: 11D5 P329GLALA IgG1 (antibody, V domains shown)
VH: QVQLVQSGAEVKKPGSSVKVSCKASGGTFSSYAISWVRQAPGQGLEWMGGIIPIFGTANYAQKFQGRVTITADKSTSTAYMELSSLRSEDTAVYYCARSTLIYGYFDYWGQGTTVTVSS
VL: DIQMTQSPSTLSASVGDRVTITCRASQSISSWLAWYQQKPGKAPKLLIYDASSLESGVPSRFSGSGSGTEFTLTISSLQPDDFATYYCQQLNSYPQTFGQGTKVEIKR
notes: anti-4-1BB; also called 11D5 IgG
What is called EC50 is the concentration needed to bring the measured effect to its halfway point. The term koff denotes the rate constant with which the complex falls apart. As a reminder, the kon is the rate constant with which the complex forms. For B1, the EC50 in [1] worked out at 1.04 nM; in assay [3] it was 0.97 nM; in the assay with human 4-1BB on cells [7], 1.46 nM. Further, the “EC50 of increase of IFNγ secretion in activated CD8+ T cells (surface-immobilized IgG)” value in the assay with human 4-1BB on cells [2] is 0.06 nM. In addition, in assay [4], the binding result is listed as “no binding”. For the same molecule, the Kd in assay [5] is 36 nM; in assay [6] it was 24 nM. In addition, the koff stood at 0.0012 s⁻¹ in assay [5] and 0.00077 s⁻¹ in [6]. Moreover, the kon was determined as 32000 M⁻¹ s⁻¹ in assay [5] and 31000 M⁻¹ s⁻¹ in assay [6].

B2: (GITR-DP47) [8A06] 4+1 construct with charged residues (bispecific antibody, V domains shown)
VH: QVQLVQSGAEVKKPGSSVKVSCKASGGTFSSYAISWVRQAPGQGLEWMGGIIPIFGTANYAQKFQGRVTITADKSTSTAYMELSSLRSEDTAVYYCARGYYAIDYWGQGTTVTVSS
VL: SSELTQDPAVSVALGQTVRITCQGDSLRSYYASWYQQKPGQAPVLVIYGKNNRPSGIPDRFSGSSSGNTASLTITGAQAEDEADYYCNSPQTSGSAVFGGGTKLTVL
B2: the EC50 in assay [8] worked out at 1.92 nM.

B3: (GITR-FAP) [8A06] 4+2 construct with charged residues (bispecific antibody, V domains shown)
VH 1: B2 VH
VL 1: B2 VL
VH 2: EVQLLESGGGLVQPGGSLRLSCAASGFTFSSHAMSWVRQAPGKGLEWVSAIWASGEQYYADSVKGRFTISRDNSKNTLYLQMNSLRAEDTAVYYCAKGWLGNFDYWGQGTLVTVSS
VL 2: EIVLTQSPGTLSLSPGERATLSCRASQSVSRSYLAWYQQKPGQAPRLLIIGASTRATGIPDRFSGSGSGTDFTLTISRLEPEDFAVYYCQQGQVIPPTFGQGTKVEIK
notes: human IgG1 P329G LALA; also called 4+2 CR
B3: a half-maximal effect in assay [8] (EC50) was put at 2.06 nM.

B4: 20G2 mu IgG1 κ DAPG (antibody, V domains shown)
VH: QVQLVQSGAEVKKPGSSVKVSCKASGGTFSSYAISWVRQAPGQGLEWMGGIIPIFGTANYAQKFQGRVTITADKSTSTAYMELSSLRSEDTAVYYCARSYYWESYPFDYWGQGTTVTVSS
VL: DIQMTQSPSTLSASVGDRVTITCRASQSISSWLAWYQQKPGKAPKLLIYDASSLESGVPSRFSGSGSGTEFTLTISSLQPDDFATYYCQQQHSYYTFGQGTKVEIK
notes: mouse IgG1 kappa with DAPG mutations; also called 20G2 mouse IgG1 DAPG
On to B4, for which the EC50 in assay [9] stood at 11.2 nM; in assay [10], 17.9 nM.

B5: 25G7 P329GLALA IgG1 (antibody, V domains shown)
VH: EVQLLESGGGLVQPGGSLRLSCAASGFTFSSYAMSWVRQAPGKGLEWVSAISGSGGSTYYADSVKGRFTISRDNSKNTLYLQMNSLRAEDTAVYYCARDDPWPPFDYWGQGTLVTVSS
VL: SSELTQDPAVSVALGQTVRITCQGDSLRSYYASWYQQKPGQAPVLVIYGKNNRPSGIPDRFSGSSSGNTASLTITGAQAEDEADYYCNSLDRRGMWVFGGGTKLTVLG
notes: anti-4-1BB; also called 25G7 IgG
Take B5: the EC50 in [1] stood at 4.52 nM; in [3], 6.68 nM; with human 4-1BB on cells [7], 29 nM. In addition, in the assay with human 4-1BB on cells [2], the “EC50 of increase of IFNγ secretion in activated CD8+ T cells (surface-immobilized IgG)” value was determined as 0.12 nM. In addition, in [4], the binding result is “no binding”. Moreover, the Kd in assay [5] was found to be 34 nM; in assay [6] it was 17 nM. Also, the koff in [5] was 0.00099 s⁻¹; in [6] it was 0.00046 s⁻¹. Besides, the on-rate (kon) is 29000 M⁻¹ s⁻¹ in assay [5] and 27000 M⁻¹ s⁻¹ in assay [6].

B6: OX40(49B4)/FAP(28H1) P329GLALA IgG1 4+2 (bispecific antibody)
heavy: not shown
light 1: DIQMTQSPSTLSASVGDRVTITCRASQSISSWLAWYQQKPGKAPKLLIYDASSLESGVPSRFSGSGSGTEFTLTISSLQPDDFATYYCQQYSSQPYTFGQGTKVEIKRTVAAPSVFIFPPSDRKLKSGTASVVCLLNNFYPREAKVQWKVDNALQSGNSQESVTEQDSKDSTYSLSSTLTLSKADYEKHKVYACEVTHQGLSSPVTKSFNRGEC
light 2: EVQLLESGGGLVQPGGSLRLSCAASGFTFSSHAMSWVRQAPGKGLEWVSAIWASGEQYYADSVKGRFTISRDNSKNTLYLQMNSLRAEDTAVYYCAKGWLGNFDYWGQGTLVTVSSASVAAPSVFIFPPSDEQLKSGTASVVCLLNNFYPREAKVQWKVDNALQSGNSQESVTEQDSKDSTYSLSSTLTLSKADYEKHKVYACEVTHQGLSSPVTKSFNRGEC
notes: also called 4+2 (49B4/28H1)
As to B6, in assay [11], the Kd worked out at 0.00441 nM. Besides, the concentration for a half-maximal effect (EC50) in assay [12] is 5.51 nM.

B7: 25G7/FAP P329GLALA IgG1 1+1 (bispecific antibody)
heavy 1: not shown
light 1: SSELTQDPAVSVALGQTVRITCQGDSLRSYYASWYQQKPGQAPVLVIYGKNNRPSGIPDRFSGSSSGNTASLTITGAQAEDEADYYCNSLDRRGMWVFGGGTKLTVLGQPKAAPSVTLFPPSSEELQANKATLVCLISDFYPGAVTVAWKADSSPVKAGVETTTPSKQSNNKYAASSYLSLTPEQWKSHRSYSCQVTHEGSTVEKTVAPTECS
heavy 2: EVQLLESGGGLVQPGGSLRLSCAASGFTFSSHAMSWVRQAPGKGLEWVSAIWASGEQYYADSVKGRFTISRDNSKNTLYLQMNSLRAEDTAVYYCAKGWLGNFDYWGQGTLVTVSSASVAAPSVFIFPPSDEQLKSGTASVVCLLNNFYPREAKVQWKVDNALQSGNSQESVTEQDSKDSTYSLSSTLTLSKADYEKHKVYACEVTHQGLSSPVTKSFNRGECDKTHTCPPCPAPEAAGGPSVFLFPPKPKDTLMISRTPEVTCVVVDVSHEDPEVKFNWYVDGVEVHNAKTKPREEQYNSTYRVVSVLTVLHQDWLNGKEYKCKVSNKALGAPIEKTISKAKGQPREPQVCTLPPSRDELTKNQVSLSCAVKGFYPSDIAVEWESNGQPENNYKTTPPVLDSDGSFFLVSKLTVDKSRWQQGNVFSCSVMHEALHNHYTQKSLSLSPGK
light 2: EIVLTQSPGTLSLSPGERATLSCRASQSVSRSYLAWYQQKPGQAPRLLIIGASTRATGIPDRFSGSGSGTDFTLTISRLEPEDFAVYYCQQGQVIPPTFGQGTKVEIKSSASTKGPSVFPLAPSSKSTSGGTAALGCLVKDYFPEPVTVSWNSGALTSGVHTFPAVLQSSGLYSLSSVVTVPSSSLGTQTYICNVNHKPSNTKVDKKVEPKSCD
For the molecule B7, in the assay with human 4-1BB on cells [13], the “EC50 of NFκB/luciferase activation, 4-1BB reporter HeLa with NIH/3T3-huFAP clone 19” value (from here on “EC50 … with NIH/3T3-huFAP clone 19”) came to 3.2 nM.

B8: 25G7/FAP P329GLALA IgG1 2+2 (bispecific antibody)
heavy: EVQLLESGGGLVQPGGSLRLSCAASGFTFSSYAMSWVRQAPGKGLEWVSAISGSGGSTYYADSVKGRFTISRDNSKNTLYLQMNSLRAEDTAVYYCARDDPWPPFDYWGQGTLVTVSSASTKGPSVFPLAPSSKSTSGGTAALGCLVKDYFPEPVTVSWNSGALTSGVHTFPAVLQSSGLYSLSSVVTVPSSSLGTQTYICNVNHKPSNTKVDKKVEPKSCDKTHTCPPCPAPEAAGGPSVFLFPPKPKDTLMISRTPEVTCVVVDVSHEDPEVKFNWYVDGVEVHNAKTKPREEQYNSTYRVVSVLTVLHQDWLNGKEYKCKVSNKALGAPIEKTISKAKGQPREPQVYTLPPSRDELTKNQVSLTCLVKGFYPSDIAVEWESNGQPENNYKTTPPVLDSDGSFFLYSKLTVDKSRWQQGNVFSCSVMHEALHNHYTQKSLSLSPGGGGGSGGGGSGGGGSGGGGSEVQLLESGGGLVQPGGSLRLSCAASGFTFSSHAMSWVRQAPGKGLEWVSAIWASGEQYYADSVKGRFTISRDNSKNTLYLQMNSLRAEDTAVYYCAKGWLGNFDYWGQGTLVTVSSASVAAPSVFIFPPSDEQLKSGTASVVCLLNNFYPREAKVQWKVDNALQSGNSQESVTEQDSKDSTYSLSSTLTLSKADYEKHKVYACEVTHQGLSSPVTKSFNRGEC
light 1: B7 light 1
light 2: B7 light 2
For B8, the “EC50 … with NIH/3T3-huFAP clone 19” value in the assay with human 4-1BB on cells [13] came out at 0.05 nM.

B9: 11D5/FAP P329GLALA IgG1 2+2 (bispecific antibody)
heavy: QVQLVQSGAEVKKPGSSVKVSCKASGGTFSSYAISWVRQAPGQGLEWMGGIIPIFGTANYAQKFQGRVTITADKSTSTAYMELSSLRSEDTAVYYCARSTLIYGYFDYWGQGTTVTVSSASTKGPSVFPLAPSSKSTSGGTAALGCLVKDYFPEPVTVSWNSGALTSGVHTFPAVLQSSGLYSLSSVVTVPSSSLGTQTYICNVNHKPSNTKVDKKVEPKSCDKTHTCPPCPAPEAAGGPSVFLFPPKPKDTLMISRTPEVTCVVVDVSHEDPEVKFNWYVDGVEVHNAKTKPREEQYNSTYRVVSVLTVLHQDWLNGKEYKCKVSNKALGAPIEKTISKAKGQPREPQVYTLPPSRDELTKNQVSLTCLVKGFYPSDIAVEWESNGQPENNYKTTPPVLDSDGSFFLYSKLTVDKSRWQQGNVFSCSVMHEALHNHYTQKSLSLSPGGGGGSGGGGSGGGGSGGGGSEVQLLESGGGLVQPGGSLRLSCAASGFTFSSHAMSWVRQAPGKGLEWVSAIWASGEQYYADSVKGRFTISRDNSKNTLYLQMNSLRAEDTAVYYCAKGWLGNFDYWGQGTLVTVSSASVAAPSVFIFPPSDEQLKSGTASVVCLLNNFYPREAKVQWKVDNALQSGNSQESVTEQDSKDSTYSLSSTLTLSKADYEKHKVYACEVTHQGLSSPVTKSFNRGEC
light 1: not shown
light 2: B7 light 2
Take B9: the “EC50 … with NIH/3T3-huFAP clone 19” value with human 4-1BB on cells [13] came to 0.05 nM.

B10: 4-1BB(25G7)/FAP(4B9) 2+1 (bispecific antibody, human IgG1, lambda, L234A L235A)
heavy 1: not shown
heavy 2: not shown
light: B7 light 1
Regarding B10, in the assay with human 4-1BB on cells [13], the “EC50 … with NIH/3T3-huFAP clone 19” value was 0.1 nM and the “EC50 of NFκB/luciferase activation, 4-1BB reporter HeLa with WM-266-4” value came out at 0.3 nM.

B11: 4-1BB(25G7)/FAP(4B9) 4+1 (bispecific antibody, human IgG1, lambda, L234A L235A)
heavy 1: not shown
heavy 2: not shown
light: B7 light 1
B11: in the assay with human 4-1BB on cells [13], the “EC50 … with NIH/3T3-huFAP clone 19” value was 0.04 nM and the “EC50 of NFκB/luciferase activation, 4-1BB reporter HeLa with WM-266-4” value is 0.2 nM.

B12: 49B4/FAP P329GLALA IgG1 2+2 (bispecific antibody)
heavy: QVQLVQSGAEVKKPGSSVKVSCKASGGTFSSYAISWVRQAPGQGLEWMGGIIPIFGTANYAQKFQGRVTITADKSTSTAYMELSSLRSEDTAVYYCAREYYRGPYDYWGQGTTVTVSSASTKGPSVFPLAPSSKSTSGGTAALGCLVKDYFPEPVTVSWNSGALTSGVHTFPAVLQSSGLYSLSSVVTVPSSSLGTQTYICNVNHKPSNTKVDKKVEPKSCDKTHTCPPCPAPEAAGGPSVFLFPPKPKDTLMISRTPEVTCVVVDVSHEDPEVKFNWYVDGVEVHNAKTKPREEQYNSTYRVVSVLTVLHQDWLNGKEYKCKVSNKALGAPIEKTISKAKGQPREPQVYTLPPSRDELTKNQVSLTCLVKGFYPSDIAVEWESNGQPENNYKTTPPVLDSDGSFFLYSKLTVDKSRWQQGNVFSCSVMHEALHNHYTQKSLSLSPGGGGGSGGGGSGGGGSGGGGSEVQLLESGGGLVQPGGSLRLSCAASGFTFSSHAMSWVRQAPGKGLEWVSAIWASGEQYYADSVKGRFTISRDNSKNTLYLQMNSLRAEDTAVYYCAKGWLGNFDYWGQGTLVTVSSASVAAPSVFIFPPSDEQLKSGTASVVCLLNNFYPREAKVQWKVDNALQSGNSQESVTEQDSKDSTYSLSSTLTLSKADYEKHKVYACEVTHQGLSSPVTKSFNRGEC
light 1: B6 light 1 with R123E, K124Q
light 2: B7 light 2
notes: also called 2+2 (49B4/28H1); bispecific bivalent 2+2 construct 49B4
On to B12, for which the EC50 in assay [12] stood at 1.31 nM.

B13: 1G4/FAP P329GLALA IgG1 2+2 (bispecific antibody)
heavy: not shown
light 1: not shown
light 2: B7 light 2
notes: also called 1G4 FAP 2+2
For B13, in the assay with human OX40 on cells, the half-maximal effective concentration (EC50) was 9.37 nM.
